pKd: −log10 of the molar value.
What was measured:
[1] = molecular target: Carbonic anhydrase II (bCAII), from bovine erythrocytes (bovine) (UniProt P00921); assay: SPR Biacore T100; bCAII immobilised on CM5, biligand as analyte 2 nM-5 µM, 1:1 fit
[2] = molecular target: Carbonic anhydrase II (bCAII), from bovine erythrocytes (bovine) (UniProt P00921); assay: SPR KD of the biligand against fluorescence polarization KD of the anchor ligand
[3] = molecular target: Carbonic anhydrase II (bCAII), from bovine erythrocytes (bovine) (UniProt P00921); assay: SPR Biacore T100; bCAII immobilised on CM5
[4] = molecular target: Carbonic anhydrase II (bCAII), from bovine erythrocytes (bovine) (UniProt P00921); assay: SPR KD of the biligands against fluorescence polarization KD of the anchor ligand
[5] = molecular target: Carbonic anhydrase II (bCAII), from bovine erythrocytes (bovine) (UniProt P00921); assay: dot blot; antigen spotted on nitrocellulose, biotinylated biligand anchor in 0.1% serum, streptavidin-HRP
[6] = molecular target: human carbonic anhydrase II (hCAII) (human) (UniProt P00918); assay: as above
[7] = molecular target: Carbonic anhydrase II (bCAII), from bovine erythrocytes (bovine) (UniProt P00921); assay: SPR Biacore T100; bCAII immobilised on CM5, branched biligand as analyte 0-1656 nM
[8] = molecular target: Carbonic anhydrase II (bCAII), from bovine erythrocytes (bovine) (UniProt P00921); assay: fluorescence polarization; 6 µM FITC-peptide titrated with bCAII 0.2-800 µM in PBS + 3% DMSO
[9] = molecular target: Carbonic anhydrase II (bCAII), from bovine erythrocytes (bovine) (UniProt P00921); assay: SPR
[10] = molecular target: Carbonic anhydrase II (bCAII), from bovine erythrocytes (bovine) (UniProt P00921); assay: SPR Biacore T100; bCAII immobilised on CM5, triligand as analyte 0.1-162 nM, 1:1 fit
[11] = molecular target: Carbonic anhydrase II (bCAII), from bovine erythrocytes (bovine) (UniProt P00921); assay: SPR KD of the triligand against SPR KD of the biligand
[12] = molecular target: human carbonic anhydrase II (hCAII) (human) (UniProt P00918); assay: as above
[13] = molecular target: human carbonic anhydrase II (hCAII) (human) (UniProt P00918); assay: SPR Biacore T100; hCAII immobilised on CM5, triligand as analyte 0.1-162 nM, 1:1 fit

Chain of Carbonic anhydrase II (bCAII), from bovine erythrocytes (bovine) (P00921 2-260 limits assumed): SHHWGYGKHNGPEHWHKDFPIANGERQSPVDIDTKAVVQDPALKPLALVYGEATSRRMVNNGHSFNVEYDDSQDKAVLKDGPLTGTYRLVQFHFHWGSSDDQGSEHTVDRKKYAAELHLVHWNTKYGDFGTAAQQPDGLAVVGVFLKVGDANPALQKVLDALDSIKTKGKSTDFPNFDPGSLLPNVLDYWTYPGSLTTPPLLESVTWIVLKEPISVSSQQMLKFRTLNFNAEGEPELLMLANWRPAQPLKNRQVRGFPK

## biligand kwlwGl-Tz1-kfwlkl (peptide)
[1]
  pKd: 5.52
[2]
  fold improvement of dissociation constant over anchor ligand lklwfk-(D-Pra): 150 fold
[3]
  pKd: 6.00

## biligand lklwfk-Tz1-kiwiG (peptide)
[1]
  pKd: 4.96
[3]
  pKd: 6.00
[4]
  fold affinity enhancement over anchor ligand: 150 fold

## biotinylated biligand anchor Biotin-(EG)5-(D-Pra)-kwlwGl-Tz1-kfwlkl (FIG. 14) (peptide)
[5]
  fold reduction of dot blot sensitivity against the triligand: 10 fold
[6]
  fold reduction of dot blot sensitivity against the triligand: 10 fold

## branched biligand capture agent vkw(Tz1)fw-kfwlkl (peptide)
[7]
  pKd: 6.30

## fluoresceinated anchor ligand lklwfk-(D-Pra) (peptide)
[8]
  pKd: 3.30

## triligand rfviln-Tz2-kwlwGl-Tz1-kfwlkl (peptide)
[9]
  pKd: 7.22
[10]
  pKd: 7.19
[11]
  fold affinity enhancement over biligand: 50 fold
[12]
  fold affinity enhancement over biligand: 50 fold
[13]
  pKd: 7.35

Reference: patent US20100009896A1
